{"source": "the nanobody polyreactivity screen of Harvey et al. (2022)", "data": [{"experiment": "yeast display, Sf9 membrane polyspecificity reagent, FACS + sequencing; frameworks hold sequencing errors", "outline": "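Nanobodies from a synthetic yeast display library (Saccharomyces cerevisiae BJ5465), induced 36–48 hours with galactose, were stained 1 hour at 4 °C with 10% biotinylated, detergent-solubilized Sf9 membrane reagent, enriched on streptavidin microbeads, then FACS-sorted. Anti-HA (expression) and streptavidin (reagent binding) fluorescence set low and high (top ~1%) gates. Polyreactivity labels come from the gate of origin. Genes were colony-PCR amplified, MiSeq 2 × 250 sequenced and filtered by CDR length.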", "values": [{"sequence": "QVQLVESGGGLVQAGGSHRLSCAASGYTFPLYAMGWYRQAPGKERELVADINIGGASTYYADSVKGRFTISRDNAKNTVYLQMNSLKPEDTAVYYCAKEYYDGYFPTFDYDYWGQGTQVTVSS", "polyreactivity (PSR sort gate)": "low polyreactivity"}, {"sequence": "QVQLVESGGGLVQAGGRLRLRCDPSGLTSYYAMGWYRQAPGKERELVSRIRSRSGSTYYADSVKGRFTISRDNAKNTVYLQMNSLKPEDTAVYYCNARQLLYAIRDSWGQVTQVTVSS", "polyreactivity (PSR sort gate)": "high polyreactivity"}, {"sequence": "QVQLVESGGGLVQAGGSLRLSCAASGFTFPWYAMGWYIQAPGKERELVASISYRGDSTYYADSVKGRFTISRDNAKNTVYLQMNSLKPEDTAVYYCNKRLASYYLPGFDYWGQGTQVTVSS", "polyreactivity (PSR sort gate)": "low polyreactivity"}, {"sequence": "QVQLVESGGGLVQAGGSLRLSCAASGRTLVSNAMGWYRQAPGKERELVARISYRGGSTYYADSVKGRFTISRDNAKNTVYLQMNSLKPEDTAVYYCAAGVRGSGRRMEYWGQGTQVTVSS", "polyreactivity (PSR sort gate)": "high polyreactivity"}, {"sequence": "QVQLVESGGGLVQAGGSLRLSCAASGFTFNANAMGWYRQAPGKERELVSVITRSGGRTYYADSVKGGFTISRDTAKNTVYLQMNSLKPEDSAVYYCATEGPSRVYQGTDSASDYWGQGTQVTVSS", "polyreactivity (PSR sort gate)": "high polyreactivity"}, {"sequence": "QLQLQESVGGLVQAGGSLRLSCAAIGNIFPTDRMGWYSQSPGKELEFVATISHGGSTNNADSVKGRFTISRDNGKNTVYLKMNSLKPEVTAVYYCAVWSLGRWRNYYWGQGSQVTVSS", "polyreactivity (PSR sort gate)": "low polyreactivity"}, {"sequence": "QVQLVESGGGLVQAGGSLRLSCAASGYILGVYAMGWYRQAPGKERDLVASISRSGGSTYYADSVKGRFTISRDNAKNTVYLQMNSLKTEDSAVYYCSNRSRTAHFRLRYDYWGQGTQVTVSS", "polyreactivity (PSR sort gate)": "low polyreactivity"}, {"sequence": "QFQLVESGGGLVQAGGSLRLSCAASGSTFWTNAMGWYRQAPGKERELVAVISRGGSTNYADSVKGRFTISRDNEKNTVYLQMNSLKPEDTAVFYCAAASYLYGRYYYWGQGTQVTVSS", "polyreactivity (PSR sort gate)": "high polyreactivity"}, {"sequence": "QEQLQESGGGLVQAGGSLRLSSAASGSISGSSTMGWYRQAQGKERELVASIAVGANTNYADSAKGRFTISRDNAKNTVYLQMNSLKPEDTAVYYCAVDYYIYYFHYWGQGTQVTVSS", "polyreactivity (PSR sort gate)": "high polyreactivity"}, {"sequence": "QVQLVESGGGLVQAGGSLRLSCAPSGRIYATYAMGWYRQAPGKDSELVAAISDSGGRTYYADSVKGRFTISRDNAKNTVYLQMKSLKPEVNAVYYCAAKNGDRYARGYWGQGTQVNVSS", "polyreactivity (PSR sort gate)": "high polyreactivity"}, {"sequence": "QVQLVESGGGLVQAGASLRLSCAASGSTFYGNTMGWYRQAPGKERELVAAITSTGRTYYADSVKGRFTLSRDNAKNTVYLQMNSLKPEDTAVYYCAASQRRRFQRPSFDYWGQGPQVTVSS", "polyreactivity (PSR sort gate)": "high polyreactivity"}, {"sequence": "QVQLVESGGGLVQAGGSLRLSCAASGSIYYNAMGWYRQAPGKERELVASISTGDSTDYADSVKGRFTISRDNAKNTVYLQMNSLKPEDTAVYYCAADTRLGYWDDYWGQGTQVTVSS", "polyreactivity (PSR sort gate)": "low polyreactivity"}, {"sequence": "QVQLVESGGGLDQAAGSLRLTCAASGTTFEYYAMGLYRQAPAKEREFVAAITGSGASTYYADSVKGRFTISRDNAKNTVYLQMNSLKPEDTAVYYCIALSALAVEDGYWGQGTQVTVSS", "polyreactivity (PSR sort gate)": "low polyreactivity"}, {"sequence": "QVQLVESGGGLVQAGGSLRLSCAASGSTFSSNAMGWYRQAPGKERELVAAISWSGASTYYADSVKGRFTISRDNAKNTVYLQMNSLKPEDTAVYYCATVWQAKYYGNHRFGYWGQGTQVTVSS", "polyreactivity (PSR sort gate)": "low polyreactivity"}, {"sequence": "QVQLVESGGGLVQAGGSLRLSCAASGSIFVGYAMGWYRQARGKERELVAAITGSGTRTYYADSVKGRFTISRDNAKNTVYLQMNSLKPEDTAVYYCAAVTYHGNPSEYYPDTVGFYYWGQGTQVTVSS", "polyreactivity (PSR sort gate)": "low polyreactivity"}, {"sequence": "QVQLVESGGGLVQAGGSLRLSCAASGRIFGGYAMGWYRQAPGKERELVAVITDGGSTNYADSVKGRFTISRDNAKNTVYLQMNSLKPEDTAVYYCAADSDGDEPPYDYWGQGTQVTVSS", "polyreactivity (PSR sort gate)": "low polyreactivity"}, {"sequence": "QVQLVESGGGLVQAGGSLRLSCAASGITFGGNAMGWYRQDPGKERELVAAISSSGGSTYYADSVKGRFTISRDNAKNTVYLQMNSLKPEDTAVYYCAARNRYPLRFYYWGQGTQVTVSS", "polyreactivity (PSR sort gate)": "high polyreactivity"}, {"sequence": "QVQLVESGGGLVQAGGSLRLSCAASGSTLVGYVMGWYRQAPGKERELVAAITTVGSTYYADSVKGRFTISRDNAKNTVYLQMNSLKPEDTAVYYCAADRSDLAEEGYAGYDYWGQGTQVTVSS", "polyreactivity (PSR sort gate)": "low polyreactivity"}, {"sequence": "QVQLVESGGGLVQAGGSLRLSCAASGFIFNIYAMGWYRQAPGKERELVAAITDDGSTNYADSVKGRFTISRDNAKNTVYLQMNSLKPEDTAVYYCAADDYYKFDYWGQGTQVTVSS", "polyreactivity (PSR sort gate)": "low polyreactivity"}, {"sequence": "QVQLVESGGGLVQAGGSLRLSCAASGSTFTHYDMGWYRQAPGKERELVADISRSGGRTYYADSVKGRFTISRDNAKNTVYLQMNSLKPEDTAVYYCATEFEHINGVNQGPYIDDYSWGQGSQVTVSS", "polyreactivity (PSR sort gate)": "low polyreactivity"}, {"sequence": "QVQLVESGGGLVQAGGSLRISCAASGSTVRYYAMGWNRQAHGKERHLVARNTSRAGRTYYADSVKGRFTISRDNAKNTVYLQMNSLKPEDTAVYYCAADQSGFRWKWYIRYDYWGQGTQVTVSS", "polyreactivity (PSR sort gate)": "high polyreactivity"}, {"sequence": "QVQLVESGGGLVQAGGSLRLSCAASGITFDSNAMGWYRQAPGNERELVAAISSTGSTDYADSVKGRFTITRDNAKNTVYLQMNSLKPEDTAVYYCATGGRGGRRYEYWGQGTQVTVSS", "polyreactivity (PSR sort gate)": "low polyreactivity"}, {"sequence": "QVQLVESGGGLVHAGGSLRLSCAASGGTFTYYTMGWYRKAPGKERELVARISKNGGRTYYADSVKGRFTLSRDNAKNTLYLKMISLKPEDTAVYYCNAAGRPYDFSGGRTMEYWGQGTQVTVST", "polyreactivity (PSR sort gate)": "high polyreactivity"}, {"sequence": "QVQLVESGGGLVQAGGSLRLSCAASGRTFVFYAMGWYRQAPGKERELVAAITSSGGRTYYADSVKGRFTISRDNAKNTVYLQMNSLKPEDTAFYYCAAPYYPYKYDYWGQGTQVTVSS", "polyreactivity (PSR sort gate)": "low polyreactivity"}, {"sequence": "QVQLVESGGGLVQAGGSLRLSCAASGITIGRYAMGWYRQAPGKERELVAAISWSGGSTYYADSVKGRFTISRDNAKNTVYLQMNSLKPEDTAVYYCNKLRRYSEYNADDGDYWGQGTQVTVSS", "polyreactivity (PSR sort gate)": "high polyreactivity"}, {"sequence": "QVQLVESVGGLVQAGGSLRLSCAASGFTFPWNVMGRYRQAPGKERELVAAITYDGGGTYADSVKGRFTISRDNAKNTVYLQMNSLKPEDTAVYYCNADLINGEEYDYWGQGTQVTVSS", "polyreactivity (PSR sort gate)": "low polyreactivity"}, {"sequence": "QVQLVESGGVLVQAGGSLRLSCAASGRTFYGYSMGWYRQAAGKEREFVSDITYSGGRTYYADSVKGRFTISRDNAKNTVYLQMYSLKPEDTAVYYCNAYYYYVNQGRYEYGYWGQGTQVTVSS", "polyreactivity (PSR sort gate)": "high polyreactivity"}, {"sequence": "QVRLVESGGGLVQAGGSLRLSCAASGRTFRIYAMGWYRQAPGKERELVAAIRWSGGTTYYADSVKGRFTISRDNAKNTVYLQMNSLKPEDTAVYYCNTNSYYEDDYWGQGTQVTVSS", "polyreactivity (PSR sort gate)": "high polyreactivity"}, {"sequence": "QVQLVESGGGLVQAGGSLRLSCADSGRTIRGNAMGWYRQAPGKERELVAAITSSGGGTYYADSVKGRFTISRDNAKNTVYLQMNSLNPEDTAVFYGAAEYRDGYRFSYDYWGQGTQVTVSS", "polyreactivity (PSR sort gate)": "low polyreactivity"}, {"sequence": "QVQLVESGGGLVQAGGSLRLSCAASGRIFRYYDMGWYRPAPGKERELVAAINSGGSTKYADSVKGRFTISRDNAKNTVYLQMNSLKPEDTAVYYCAADKARAWGYDYWGQGTQVTVSS", "polyreactivity (PSR sort gate)": "high polyreactivity"}, {"sequence": "QVQLLESGGGLVQAGGSLRLSCAASGSIFVINVMGWYRQAPRKDRELVATITGGRSTKYADSVNGRFTISRDNAKNTVYLQMNSLKPEDTAVYYCNIQSKSRGVHDPSGYDYWGQGTQVTVSS", "polyreactivity (PSR sort gate)": "low polyreactivity"}, {"sequence": "QVQLEESGGGLVQAGGSLRLSCAASGSTFSDNAKAWYRQATGKVRELVADITWSGGSTHYADSVKGRFTFSRDNAKNTVYLQMTSLKPEDTSVYYCARDNYKEGDYWGQGTKVTVSS", "polyreactivity (PSR sort gate)": "low polyreactivity"}, {"sequence": "QVQLVESGGGLVQAGGSLRLSCAASGSIFGNYAMGWYRQAPGKEREFVAAITWIGGSSYYADSVKGRFTISRDNAKNTVYLQMHSLKPEDTAVYYCARTSYARYRNGWTYDHWGQGTQVTVSS", "polyreactivity (PSR sort gate)": "low polyreactivity"}, {"sequence": "QVQLVESGGGLVQAGGSLRLSCAASGRIFSYNAMGWYRQAPGKERELVASISYSGTSTYYADSVKGRFTISRDNAKKTVYLQMNSLKPEDTAVYYCAALSRRRFGYWGQGTQVTVSS", "polyreactivity (PSR sort gate)": "high polyreactivity"}, {"sequence": "QVQLVESGGGLVQAGGSLRLSCAASGRTFKYYTMGWYRQAPGKERELVAAISGGGGITNYADSVKGRFTISRDNAKNTVYLQMNSQKPEDTAVYYCYARYNSWRYLAQYNYWGQGTQVTVSS", "polyreactivity (PSR sort gate)": "high polyreactivity"}, {"sequence": "QVQLVESGGGLVQAGGSLRLSCAASGRTIRRNARGWYRQAPGKERELVAGISGSGTITYADSVKGRVTISRDNAKNTVYLQMNSLKPEDTAVYYCAARRKSFYTFYYWGQGTKVTVSS", "polyreactivity (PSR sort gate)": "high polyreactivity"}, {"sequence": "QVQLVESGGGLVQAGGSLRLSCAASGSTFGTNVMGWYRQAPGKERELVAAISRRGSSTYYADSVKGRFTISRDNAKNTVYLQMNSLKPEDTAVYYCAARVYPSAAMDSWGQGTQVTVSS", "polyreactivity (PSR sort gate)": "high polyreactivity"}, {"sequence": "QVQLVESGGGLVQAGGSLRLSCAASGRTFYRYAMGWYRQAPGKERELVAVITSGSRTKYADSVKGRFTISRDNAKNTVYLQMNSLKPEDTAVYYCAARVLALEGKSSGEYWGQGTQVTVSS", "polyreactivity (PSR sort gate)": "high polyreactivity"}, {"sequence": "QVQLVESGGGLVQAGGSLRLSCAASGNTFPIYAMGWSRQAPGKERELVAAIRSSTGSTYYADSVKGRFTISRDYAKNTVYLQMNSLKPEATAVYYCAAAGVTSVVYGTRYYYWGQGTQVTVSS", "polyreactivity (PSR sort gate)": "high polyreactivity"}, {"sequence": "QVQLVESGGGLVQAGGSLRLSCAASGSTFDYYDMGWYRQAPGKERELVATITSGGSTNYADSVKGRFTISRDNAKNNVYLQMNILKTEDTAVFYCASDIGGDGEGYDYWGQGTQVTVSS", "polyreactivity (PSR sort gate)": "low polyreactivity"}, {"sequence": "QVQLVESGGGLVQAGGSLRLSCAASGFTFRSYVMGWYRQAPGKERELVASISSGGITKYADSVKGRFTISRDNAKNTVYLQMNSLKPEDTAVYYCNARTYSNTVLNYGLQYGYDYWGQGTQVTVSS", "polyreactivity (PSR sort gate)": "high polyreactivity"}, {"sequence": "QVQLVESGGGLVQAGGSLRLSCAASGSTFTSYAMGWYRQAPGKERELVAAINWSGGSTYYADSVKGRFTISRDIAKNTVYLQMNSLKPEDTAVYYCAVLYRYGYDYWGQGTQVTVSS", "polyreactivity (PSR sort gate)": "low polyreactivity"}, {"sequence": "QVQLVESGGGLVQAGGSLRLSCAASGSTYYQYVMGWYRQAPGKEMELVAAISGSGGSTYYADSVKGRFTISRDNAKNTVYLQMNSLKPEDTAVYYCAARLRGRGRPPFGYWGQGTQLTVSS", "polyreactivity (PSR sort gate)": "high polyreactivity"}]}]}
